According to patent publication US20100286042A1:

Target: FGFR2b
Assay: cell-based or functional assay

cell proliferation promoting activity on BaF3 cells forced to express the receptor (in the presence of heparin), relative to FGF1 (fold of the activity of FGF1): 0.001
Substance: basic fibroblast growth factor (FGF2) (from UniProt P09038 143-288) (ligand)
